Entries after “also recorded” stand apart in the source; their conditions may differ.
Tests used:
[1] = biological target: T1, mouse wild-type FGFR4 (FGFR4 Gly385) (mouse, UniProt Q03142 17-799); assay: in vivo SILAC LC-MS/MS of FGFR4 immunoprecipitates from liver, FGFR4 Gly385 mouse with the labelled SILAC mouse as internal standard
T1 construct: Endogenous hepatic FGFR4, immunoprecipitated from mouse liver lysates; also called hepatic FGFR4

[2] = biological target: T1, mouse wild-type FGFR4 (FGFR4 Gly385); assay: in vivo SILAC LC-MS/MS of FGFR4 immunoprecipitates from liver, labelled SILAC mouse against FGFR4 KO mouse
Experimental: The hepatic FGFR4 of the unlabelled mouse was immunoprecipitated in the presence of the blocking peptides to detect unspecific binding partners. […] Unspecific interaction partners should display a 1:1 ratio compared to the unlabelled fraction incubated with the blocking peptides. […] For that reason, the investigation of hepatic FGFR4 interaction partners was done with the liver of FGFR4 KO mice (Yu et al., 2000).
Here, significance (PEP<0.03), amount of razor peptides (RPs, >1) and an upregulation of at least 3 fold in FGFR4 KO experiments identified potential FGFR4 interaction partner.

[3] = biological target: T2, mouse FGFR4 Arg385 (knock-in allele) (mouse, UniProt Q03142 17-799); assay: in vivo SILAC LC-MS/MS of FGFR4 immunoprecipitates from liver, FGFR4 Arg385 mouse with the labelled SILAC mouse as internal standard
T2 construct: Endogenous FGFR4 of FGFR4 Arg385 KI mice (liver lysates) and of MEFs derived from them
T2 sequence (Q03142 17-799 G385R/E673G limits assumed): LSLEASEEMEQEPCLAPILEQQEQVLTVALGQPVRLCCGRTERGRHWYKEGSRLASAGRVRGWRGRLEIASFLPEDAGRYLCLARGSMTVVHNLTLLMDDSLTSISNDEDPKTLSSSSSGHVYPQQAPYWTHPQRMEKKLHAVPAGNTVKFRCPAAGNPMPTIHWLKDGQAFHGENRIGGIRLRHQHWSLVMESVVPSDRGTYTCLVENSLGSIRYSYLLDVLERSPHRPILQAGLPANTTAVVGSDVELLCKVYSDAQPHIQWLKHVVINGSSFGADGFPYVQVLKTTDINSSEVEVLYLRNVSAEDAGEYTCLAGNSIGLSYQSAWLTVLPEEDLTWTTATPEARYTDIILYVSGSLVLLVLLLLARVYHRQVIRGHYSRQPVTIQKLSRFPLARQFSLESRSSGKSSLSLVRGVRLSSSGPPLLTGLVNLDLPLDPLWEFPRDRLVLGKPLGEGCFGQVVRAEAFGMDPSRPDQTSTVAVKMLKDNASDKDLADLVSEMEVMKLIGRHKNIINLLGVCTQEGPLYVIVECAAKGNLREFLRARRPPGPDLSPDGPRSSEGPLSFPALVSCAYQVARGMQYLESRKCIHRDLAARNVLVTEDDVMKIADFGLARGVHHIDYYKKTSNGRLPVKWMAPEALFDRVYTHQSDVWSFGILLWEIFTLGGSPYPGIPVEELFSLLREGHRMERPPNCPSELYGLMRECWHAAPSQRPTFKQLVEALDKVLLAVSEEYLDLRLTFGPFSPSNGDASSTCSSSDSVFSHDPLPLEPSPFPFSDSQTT

[4] = biological target: T2, mouse FGFR4 Arg385 (knock-in allele); assay: in vivo SILAC LC-MS/MS of FGFR4 immunoprecipitates from liver; FGFR4 Arg385 against the reference FGFR4 Gly385
FGFR4 Arg/Arg385 MEFs = assay: Apoptosis assay in MEFs (propidium-iodide, FACS) after chemotherapeutic drugs; type: cell-based, mouse
Experimental: Transmigration of MEFs were analysed in Boyden Chambers (Schubert & Weiss, Germany). 1.5×10^4 cells were seeded in starving medium containing 0% FCS. Migration was performed to DMEM containing 4% FCS for 16 h. Afterwards cells were stained with crystal violet and migrated cells were analysed macroscopically. To perform an apoptosis assay 1.5×10^4cells in DMEM containing 10% FCS were seeded in 12-well plates. After 24 h cells were treated with 0.5 μM doxorubicin for 48 h. Afterwards cells were stained with propidium-iodide and apoptotic cells were determined in a FACS (FACScalibus, BD) analysis as previously described (27).
To support these observations by molecular analytical methods we determined whether the FGFR4 Arg385 allele is hyperactivated in MEFs and thereby enhances cell transformation. The expression of the different FGFR4 isoforms is equal in MEFs as well as its basic state of phosphorylation (FIG. 9A). Next, we wanted to check if FGFR4 Arg385 facilitates cell survival or influences physiological processes of MEFs. Therefore we analysed the number of population doublings until the cells enter senescence in vitro and additionally stained MEFs, subcultured for 30 days, for […] to visualize senescent cells. However, we found no obvious differences between the different FGFR4 alleles (FIG. 9B). […] Further we wanted to investigate the influence of the FGFR4 Arg385 allele on physiological processes. As a motility enhancing effect of is the FGFR4 Arg388 allele had already been shown by Bange and colleagues with a human mammary carcinoma cell line, we wanted to confirm this observation in MEFs, but as shown in FIG. 9C no difference observed when Gly/Gly—were compared to Arg/Arg-MEFs. Contrarily, Arg-carrying MEFs seemed to strongly support cell survival in response to DNA-damaging agents. […] Additionally, we investigated the anti-apoptotic impact of the FGFR4 Arg385 after treatment with other chemotherapeutic drugs.

[5] = biological target: human FGFR4 Gly388 (pLXSN-FGFR4 Gly388, overexpressed in MDA-MB-231 cells) (human) (UniProt P22455); assay: SILAC LC-MS/MS of FGFR4 immunoprecipitates, MDA-MB-231 cells overexpressing FGFR4 Gly388, normalized to empty pLXSN control cells
[6] = biological target: human FGFR4 Arg388 (pLXSN-FGFR4 Arg388, overexpressed in MDA-MB-231 cells) (human) (UniProt P22455); assay: SILAC LC-MS/MS of FGFR4 immunoprecipitates, MDA-MB-231 cells; FGFR4 Arg388 against the reference FGFR4 Gly388
Chain of human FGFR4 Arg388 (pLXSN-FGFR4 Arg388, overexpressed in MDA-MB-231 cells) (human) (P22455 22-802 G388R): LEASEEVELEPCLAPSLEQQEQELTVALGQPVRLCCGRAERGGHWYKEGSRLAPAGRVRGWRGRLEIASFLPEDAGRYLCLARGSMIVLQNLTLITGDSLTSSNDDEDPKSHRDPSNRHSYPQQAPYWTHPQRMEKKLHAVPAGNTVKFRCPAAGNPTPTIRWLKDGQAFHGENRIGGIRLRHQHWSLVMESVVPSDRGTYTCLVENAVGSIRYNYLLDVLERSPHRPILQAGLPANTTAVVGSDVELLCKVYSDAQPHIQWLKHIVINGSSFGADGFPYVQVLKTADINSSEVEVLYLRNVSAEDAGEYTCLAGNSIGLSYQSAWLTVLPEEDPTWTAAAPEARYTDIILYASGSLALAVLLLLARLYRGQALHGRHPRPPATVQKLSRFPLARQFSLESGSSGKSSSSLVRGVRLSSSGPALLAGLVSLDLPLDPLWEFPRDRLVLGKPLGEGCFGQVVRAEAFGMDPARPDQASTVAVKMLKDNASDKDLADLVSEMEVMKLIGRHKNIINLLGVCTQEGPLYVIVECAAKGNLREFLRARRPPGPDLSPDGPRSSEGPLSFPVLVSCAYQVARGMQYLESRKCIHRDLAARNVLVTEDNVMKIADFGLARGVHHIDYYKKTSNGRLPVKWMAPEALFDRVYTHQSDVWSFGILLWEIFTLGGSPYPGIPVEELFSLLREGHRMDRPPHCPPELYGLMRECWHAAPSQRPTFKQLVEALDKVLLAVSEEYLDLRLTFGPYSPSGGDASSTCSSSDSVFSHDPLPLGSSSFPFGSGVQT

[7] = biological target: human FGFR4 Arg388 (pLXSN-FGFR4 Arg388, overexpressed in MDA-MB-231 cells) (human) (UniProt P22455); assay: SILAC LC-MS/MS of FGFR4 immunoprecipitates, MDA-MB-231 cells overexpressing FGFR4 Arg388, normalized to empty pLXSN control cells
[8] = biological target: Epidermal Growth Factor Receptor (EGFR, SEQ ID NO: 77) (Homo sapiens (Human)) (UniProt P00533); assay: cell-based or functional assay
[9] = tested on: MDA-MB-231 cells expressing the empty pLXSN vector; assay: MTT-proliferation assay with Gefitinib; type: cell-based, human; details: up to 20 μM of Gefitinib
[10] = tested on: FGFR4 Arg388 expressing MDA-MB-231 cells; assay: Apoptosis in response to Gefitinib treatment; type: cell-based, human; details: Gefitinib 20 μM (p=0.012) and 10 μM (p=0.0022); 96 hours
Experimental: In a preferred embodiment, the proliferation rate is determined via a MTT proliferation assay, the apoptosis is determined via FACS analysis (Nicoletti et al., 1991, J. Immunol. Methods, 139: 271-279), and/or the migration is determined with a Boyden Chamber Assay, e.g. as described in the Examples below.
To further analyze the physiological connection between the EGFR and the FGFR4 we investigated the differences between the different FGFR4 alleles in MDA-MB-231 overexpressing cells upon exposure to Gefitinib. […]. Therefore, physiological processes that require the dimerization of the EGFR and the FGFR4 should lead to different results in the presence of Gefitinib compared to those obtained without an EGFR inhibitor. […]. Therefore, we investigated the impact of FGFR4 Arg388 overexpression on apoptosis in response to Gefitinib treatment in MDA-MB-231 cells. […]; 10 μM-p=0.0022). […].

[11] = tested on: MDA-MB-231 cells overexpressing the FGFR4 Arg388 allele; type: cell-based, human; details: FGFR4 Arg388 expressing cells; Gefitinib 0.025-20 μM
[12] = tested on: MDA-MB-231 cells expressing FGFR4 Gly388; type: cell-based, human; details: up to 20 μM of Gefitinib
[13] = tested on: MDA-MB-231 cells expressing the FGFR4 Arg388 allele; type: cell-based, human; details: FIG. 20C

T1 sequence (Q03142 17-799 E673G limits assumed): as the sequence (Q03142 17-799 G385R/E673G limits assumed) above, with R369G counted along it
Chain of human FGFR4 Gly388 (pLXSN-FGFR4 Gly388, overexpressed in MDA-MB-231 cells) (P22455 22-802 limits assumed): as the sequence (P22455 22-802 G388R) above, with R367G counted along it
Chain of Ephrin type-A receptor 2 (P29317 24-976 limits assumed): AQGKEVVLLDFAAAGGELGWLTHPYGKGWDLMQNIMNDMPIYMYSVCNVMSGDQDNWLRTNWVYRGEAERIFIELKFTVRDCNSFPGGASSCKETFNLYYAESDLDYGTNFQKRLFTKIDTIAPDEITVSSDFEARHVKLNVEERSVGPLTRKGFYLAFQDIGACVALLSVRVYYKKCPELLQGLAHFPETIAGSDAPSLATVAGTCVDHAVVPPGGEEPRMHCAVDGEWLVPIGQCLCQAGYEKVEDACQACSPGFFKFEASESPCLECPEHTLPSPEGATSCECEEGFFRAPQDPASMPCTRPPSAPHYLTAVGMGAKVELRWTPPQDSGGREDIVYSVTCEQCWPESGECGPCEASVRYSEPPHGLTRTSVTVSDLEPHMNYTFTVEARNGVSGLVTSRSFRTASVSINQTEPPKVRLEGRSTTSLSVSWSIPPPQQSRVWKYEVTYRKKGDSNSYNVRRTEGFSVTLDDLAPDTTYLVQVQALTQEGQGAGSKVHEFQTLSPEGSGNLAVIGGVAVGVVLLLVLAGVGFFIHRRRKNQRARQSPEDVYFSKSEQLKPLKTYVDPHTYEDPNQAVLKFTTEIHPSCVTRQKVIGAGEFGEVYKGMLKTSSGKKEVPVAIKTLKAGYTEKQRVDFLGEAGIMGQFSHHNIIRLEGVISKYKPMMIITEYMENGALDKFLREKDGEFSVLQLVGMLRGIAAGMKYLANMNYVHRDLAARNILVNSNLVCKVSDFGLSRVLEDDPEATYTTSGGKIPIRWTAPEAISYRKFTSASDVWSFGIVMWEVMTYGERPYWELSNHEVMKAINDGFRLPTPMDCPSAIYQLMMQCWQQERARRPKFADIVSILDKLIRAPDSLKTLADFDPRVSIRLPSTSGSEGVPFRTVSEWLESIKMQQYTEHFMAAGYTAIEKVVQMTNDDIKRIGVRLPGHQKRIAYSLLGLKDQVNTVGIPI

Row | Molecule | ratio FGFR4 Gly385 (n = 1) [1] | ratio FGFR4 KO (n = 2) [2] [fold] | ratio FGFR4 Arg385 (n = 2) [3] | ratio FGFR4 Arg385/Gly385 [4] | other results
1 | Hydroxymethylglutaryl-CoA synthase (from UniProt P54869 38-508) (enzyme) | 1.8 | 3.3 | 1.8 | 1 | 
2 | COc1cccc2c1C(=O)c1c(O)c3c(c(O)c1C2=O)C[C@@](O)(C(=O)CO)C[C@@H]3O[C@H]1C[C@H](N)[C@H](O)[C@H](C)O1 [doxorubicin] |  |  |  |  | apoptotic cells in Arg/Arg385 MEFs compared to Gly/Gly385 MEFs (FGFR4 Arg/Arg385 MEFs; 0.5 μM doxorubicin, 48 h, p=0.03): decreased percentage of apoptotic cells; also recorded: reduced number of apoptotic cells
3 | Protein tyrosine phosphatase, receptor type, F (from UniProt P10586 30-1907) |  |  |  |  | ratio FGFR4Gly388 (n = 2) [5]: 16.6 fold; ratio FGFR4Arg388/Gly388 (n = 2) [6]: 1.06 fold; ratio FGFR4Arg388 (n = 2) [7]: 14.3 fold
4 | Epidermal growth factor receptor (mouse liver, Egfr) (from UniProt Q01279 25-1210) | 0.3 | 5.8 | 1.3 | 3.8 | 
5 | N.N.[Cl][Pt][Cl] [cisplatin] |  |  |  |  | apoptotic cells in Arg385 carrying MEFs compared to Gly/Gly385 MEFs (FGFR4 Arg/Arg385 MEFs; 3 μM cisplatin, 48 hrs, p=0.03): decreased apoptosis; also recorded: reduced number of apoptotic cells
6 | Ephrin type-A receptor 2 (from UniProt P29317 24-976) |  |  |  |  | ratio FGFR4Gly388 (n = 2) [5]: 7.97 fold; ratio FGFR4Arg388/Gly388 (n = 2) [6]: 1.05 fold; ratio FGFR4Arg388 (n = 2) [7]: 8.74 fold
7 | human FGFR4 Gly388 (pLXSN-FGFR4 Gly388, overexpressed in MDA-MB-231 cells) (from UniProt P22455 22-802) (receptor) |  |  |  |  | IC50 of Gefitinib, MTT-proliferation assay of MDA-MB-231 cells expressing FGFR4 Gly388 (same value for empty pLXSN) [8]: 18.7 µM; inhibition of migration by Gefitinib (2.5 µM), Boyden Chamber Assay, 15 hours, against DMSO treated control cells [8]: 6.28%
8 | CC(=O)O[C@H]1C(=O)[C@@]2(C)[C@H]([C@H](OC(=O)c3ccccc3)[C@]3(O)C[C@H](OC(=O)[C@H](O)[C@@H](NC(=O)c4ccccc4)c4ccccc4)C(C)=C1C3(C)C)[C@]1(OC(C)=O)CO[C@@H]1C[C@@H]2O [taxol] |  |  |  |  | apoptotic response in Gly/Gly385 MEFs compared to Arg/Arg385 MEFs (FGFR4 Arg/Arg385 MEFs; taxol, 48 hrs): no differences in apoptotic response
9 | human FGFR4 Arg388 (pLXSN-FGFR4 Arg388, overexpressed in MDA-MB-231 cells) (from UniProt P22455 22-802) (receptor) |  |  |  |  | IC50 of Gefitinib, MTT-proliferation assay of MDA-MB-231 cells overexpressing the FGFR4 Arg388 allele [8]: 9.53 µM; inhibition of migration by Gefitinib (2.5 µM), Boyden Chamber Assay, 15 hours, against DMSO treated control cells [8]: 22.3%
10 | COc1cc2ncnc(Nc3ccc(F)c(Cl)c3)c2cc1OCCCN1CCOCC1 [Gefitinib] |  |  |  |  | response in MTT-proliferation assay [9]: no response; apoptotic response in FGFR4 Arg388 cells compared to FGFR4 Gly388 cells [10]: significantly increased apoptotic response; also recorded: significant increase in apoptosis; response in MTT-proliferation assay [11]: typical dose response curve; response in MTT-proliferation assay [12]: no response; migration in FGFR4 Arg388 cells compared to FGFR4 Gly388 cells in response to Gefitinib [13]: decrease in migration

More lines, main results first:

Row | ratio FGFR4 Gly385 (n = 1) [1] | ratio FGFR4 KO (n = 2) [2] [fold] | ratio FGFR4 Arg385 (n = 2) [3] | ratio FGFR4 Arg385/Gly385 [4] | Molecule | other results
11 | 0.4 | 3.5 | 1 | 2.7 | Formimidoyltransferase-cyclodeaminase (from UniProt Q91XD4 1-541) (enzyme) | 
12 | 0.1 | 19.7 | 1.6 | 27.8 | Hydroxyacid oxidase 1 (from UniProt Q9WU19 1-370) (enzyme) | 
13 | 0.2 | 7.8 | 3.6 | 18.6 | Propanoyl-CoA C-acyltransferase (from UniProt P32020 1-547) (enzyme) | 
14 | 3.2 ratio | 28.2 | 2.4 ratio | 0.7 ratio | Beta-klotho (receptor, mouse, UniProt Q99N32 1-1043, looked up, Endogenous protein co-immunoprecipitated with hepatic FGFR4; also called βKlotho) MKTGCAAGSPGNEWIFFSSDERNTRSRKTMSNRALQRSAVLSAFVLLRAVTGFSGDGKAIWDKKQYVSPVNPSQLFLYDTFPKNFSWGVGTGAFQVEGSWKTDGRGPSIWDRYVYSHLRGVNGTDRSTDSYIFLEKDLLALDFLGVSFYQFSISWPRLFPNGTVAAVNAQGLRYYRALLDSLVLRNIEPIVTLYHWDLPLTLQEEYGGWKNATMIDLFNDYATYCFQTFGDRVKYWITIHNPYLVAWHGFGTGMHAPGEKGNLTAVYTVGHNLIKAHSKVWHNYDKNFRPHQKGWLSITLGSHWIEPNRTDNMEDVINCQHSMSSVLGWFANPIHGDGDYPEFMKTGAMIPEFSEAEKEEVRGTADFFAFSFGPNNFRPSNTVVKMGQNVSLNLRQVLNWIKLEYDDPQILISENGWFTDSYIKTEDTTAIYMMKNFLNQVLQAIKFDEIRVFGYTAWTLLDGFEWQDAYTTRRGLFYVDFNSEQKERKPKSSAHYYKQIIQDNGFPLKESTPDMKGRFPCDFSWGVTESVLKPEFTVSSPQFTDPHLYVWNVTGNRLLYRVEGVRLKTRPSQCTDYVSIKKRVEMLAKMKVTHYQFALDWTSILPTGNLSKVNRQVLRYYRCVVSEGLKLGVFPMVTLYHPTHSHLGLPLPLLSSGGWLNMNTAKAFQDYAELCFRELGDLVKLWITINEPNRLSDMYNRTSNDTYRAAHNLMIAHAQVWHLYDRQYRPVQHGAVSLSLHCDWAEPANPFVDSHWKAAERFLQFEIAWFADPLFKTGDYPSVMKEYIASKNQRGLSSSVLPRFTAKESRLVKGTVDFYALNHFTTRFVIHKQLNTNRSVADRDVQFLQDITRLSSPSRLAVTPWGVRKLLAWIRRNYRDRDIYITANGIDDLALEDDQIRKYYLEKYVQEALKAYLIDKVKIKGYYAFKLTEEKSKPRFGFFTSDFRAKSSVQFYSKLISSSGLPAENRSPACGQPAEDTDCTICSFLVEKKPLIFFGCCFISTLAVLLSITVFHHQKRRKFQKARNLQNIPLKKGHSRVFS | 

From patent US20110179505A1, “RODENT CANCER MODEL FOR HUMAN FGFR4 ARG388 POLYMORPHISM” (priority 2008, published 2011)
